We go through four molecules from PMC9347011, “Transcriptional and post-transcriptional regulation of ethylene biosynthesis by exogenous acetylsalicylic acid in kiwifruit”.

Conditions in all cases: protein: recombinant; tags: GST (pGEX-4T-1); label: 3'-biotin
In data set [1] the target is AdERF105L (kiwifruit, UniProt A0A2R6RWH8 1-269). Nature of the data set: EMSA; reduced by 20- and 500-fold unlabeled probe; LightShift Chemiluminescent EMSA kit (Thermo); 3'-biotin dsDNA probes, 20- and 500-fold unlabeled competitor; buffer, salt, pH and temperature not stated.
Data set [2] concerns the target T1, AdWRKY29 (kiwifruit, UniProt A0A2R6PHX2 1-296).
T1 sequence: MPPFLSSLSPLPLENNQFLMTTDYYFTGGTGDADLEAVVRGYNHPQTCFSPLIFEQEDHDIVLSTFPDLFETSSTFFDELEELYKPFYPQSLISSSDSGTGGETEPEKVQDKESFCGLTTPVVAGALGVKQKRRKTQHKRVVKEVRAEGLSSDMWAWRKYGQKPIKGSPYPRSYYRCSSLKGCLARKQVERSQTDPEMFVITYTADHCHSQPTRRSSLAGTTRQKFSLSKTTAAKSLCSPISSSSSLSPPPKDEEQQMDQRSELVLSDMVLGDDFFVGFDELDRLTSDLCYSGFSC
The data set is described as above.

Data set [3] deals with T1, AdWRKY29. Nature of the data set: EMSA; LightShift Chemiluminescent EMSA kit (Thermo); 3'-biotin dsDNA probes, 20- and 500-fold unlabeled competitor; buffer, salt, pH and temperature not stated.

Chain of AdERF105L (A0A2R6RWH8 entry or part of it): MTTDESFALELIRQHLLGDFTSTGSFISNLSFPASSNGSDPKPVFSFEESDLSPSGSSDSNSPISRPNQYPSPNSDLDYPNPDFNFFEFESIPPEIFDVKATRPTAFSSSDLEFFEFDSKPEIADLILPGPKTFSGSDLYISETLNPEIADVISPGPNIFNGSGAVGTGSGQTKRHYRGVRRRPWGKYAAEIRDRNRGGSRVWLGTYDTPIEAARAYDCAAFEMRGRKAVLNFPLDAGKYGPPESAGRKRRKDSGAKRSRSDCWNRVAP

B1: AdACS1 promoter DRE probe (dsDNA)
DNA 1: CTGCGATTTGCCGTCGGTACGACTCTCATC
DNA 2: GATGAGAGTCGTACCGACGGCAAATCGCAG
For the molecule B1, in data set [1], the binding result was “binds”.

B2: AdACS2 promoter DRE probe (dsDNA)
DNA 1: CTAAGATTTGCTGTCGGTATGGCTCTCAT
DNA 2: ATGAGAGCCATACCGACAGCAAATCTTAG
In the case of B2, in data set [1], the binding result was “binds”.

B3: AdACO5 promoter W-box probe (dsDNA)
DNA 1: AACAAAGTCCAGTTGACCACTTTAATTTCC
DNA 2: GGAAATTAAAGTGGTCAACTGGACTTTGTT
Take B3: the binding result in data set [2] is “binds”.

B4: AdACO5 promoter W-box mutant probe (dsDNA)
DNA 1: AACAAAGTCCAGAAAAAAACTTTAATTTCC
DNA 2: GGAAATTAAAGTTTTTTTCTGGACTTTGTT
B4: in data set [3], the binding result is “no binding”.
